Experimental data: EP4624485A1, “PEPTIDE THAT TARGETS MACROPHAGES AND USES THEREOF” (Consejo Superior De Investigaciones Científicas, priority 2024, dated 2025)
One block for each molecule: values may come before it. Bridge positions count the residues as written; N and C are the ends. Ends that are not written are not given here. Peptide text beside a SMILES is read from it. * marks the point of attachment. 5FAM = O=C1OC2(c3ccc(O)cc3Oc3cc(O)ccc32)c2ccc(C(=O)*)cc21; Vert = not defined here; Ahx = NCCCCCC(=O)O

Assays:
[1] = biological target: T1, human recombinant CD206 (Homo sapiens, UniProt P22897); assay: Quartz Crystal Microbalance (QCM) binding to PAH/CD206 multilayer; conditions: peptides 10µM in PBS, curve fitting, read-out: constant of association
T1 construct: purchased R&D systems 2534-MR-050/CF
T1 sequence (P22897 19-1456): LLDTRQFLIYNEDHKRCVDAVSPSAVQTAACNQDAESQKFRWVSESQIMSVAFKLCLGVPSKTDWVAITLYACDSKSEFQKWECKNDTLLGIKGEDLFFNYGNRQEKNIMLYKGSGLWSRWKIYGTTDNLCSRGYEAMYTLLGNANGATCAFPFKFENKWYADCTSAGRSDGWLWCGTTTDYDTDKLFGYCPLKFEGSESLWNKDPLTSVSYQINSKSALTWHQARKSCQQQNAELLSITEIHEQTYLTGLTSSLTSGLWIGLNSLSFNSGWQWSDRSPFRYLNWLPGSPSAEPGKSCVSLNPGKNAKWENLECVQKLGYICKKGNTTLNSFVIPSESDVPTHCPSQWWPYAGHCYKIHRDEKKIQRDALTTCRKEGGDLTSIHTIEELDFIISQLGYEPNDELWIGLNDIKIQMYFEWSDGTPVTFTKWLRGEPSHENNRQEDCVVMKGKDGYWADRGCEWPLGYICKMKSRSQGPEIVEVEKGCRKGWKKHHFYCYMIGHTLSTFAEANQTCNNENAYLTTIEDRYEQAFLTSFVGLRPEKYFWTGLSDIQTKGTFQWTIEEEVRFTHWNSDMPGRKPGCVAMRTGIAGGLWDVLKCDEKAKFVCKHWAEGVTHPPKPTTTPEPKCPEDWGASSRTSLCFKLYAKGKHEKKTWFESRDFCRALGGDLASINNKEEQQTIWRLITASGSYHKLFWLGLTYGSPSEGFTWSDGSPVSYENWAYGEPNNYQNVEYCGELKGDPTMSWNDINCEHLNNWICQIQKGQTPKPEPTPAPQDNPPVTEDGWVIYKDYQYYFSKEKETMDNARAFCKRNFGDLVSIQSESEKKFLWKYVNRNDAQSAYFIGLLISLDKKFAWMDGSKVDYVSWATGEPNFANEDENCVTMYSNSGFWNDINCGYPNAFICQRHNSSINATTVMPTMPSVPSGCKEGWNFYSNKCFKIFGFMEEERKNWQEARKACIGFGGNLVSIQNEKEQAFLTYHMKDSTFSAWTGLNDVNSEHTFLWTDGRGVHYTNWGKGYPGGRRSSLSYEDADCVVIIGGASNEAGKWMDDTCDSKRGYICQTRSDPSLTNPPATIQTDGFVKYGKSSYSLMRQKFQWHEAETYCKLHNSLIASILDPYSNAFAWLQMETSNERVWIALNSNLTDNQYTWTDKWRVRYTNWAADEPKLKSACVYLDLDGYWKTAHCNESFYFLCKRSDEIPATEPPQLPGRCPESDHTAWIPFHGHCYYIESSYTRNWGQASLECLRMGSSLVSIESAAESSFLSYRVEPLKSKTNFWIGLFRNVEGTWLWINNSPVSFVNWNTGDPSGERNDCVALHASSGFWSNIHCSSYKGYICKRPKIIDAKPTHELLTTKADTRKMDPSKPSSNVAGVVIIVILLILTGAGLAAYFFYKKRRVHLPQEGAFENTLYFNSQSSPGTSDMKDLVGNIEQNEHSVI
Excerpt: To confirm the capacity of MACTIDE to bind to CD206, we evaluated binding to recombinant CD206 included in a viscoelastic film, using Quartz Crystal Microbalance (QCM). QCM is a powerful technique used to study label-free ligand-receptor interactions in solution (Baltus, R. E. et al., Langmuir 2007, 23 (7), 3880-3885), wherein peptide binding and dissociation is sensed through a mass increase or decrease on a resonating crystal surface functionalized with the receptor. Here, we evaluated the mass changes of MACTIDE when binding and dissociating in solution to CD206 immobilized on a viscoelastic film, deposited on a gold-modified quartz crystal resonating at 5 MHz. […]
The Quartz Crystal Microbalance (QCM) used was QCM200 system from Stanford Research Systems (Sunnyvale, CA, USA). […] Then, a baseline with 500µL of mQ at pH 8 was recorded, the measurement was paused and then 5µL of a 1mg/mL solution in PBS were added (human recombinant CD206, Cat # 2534-MR-050/CF from R&D systems, reconstituted with 50µL of mQ); final concentration of CD206 in the cell: 0.01 mg/mL. […] For peptides, 500µL of PBS were placed in the cell and the baseline was recorded, the measurement was then paused and 50µL of a 100µM solution of peptides in PBS were gently deposited on the cell and the measurement was resumed. […]

[2] = tested on: IL4-stimulated macrophages; assay: In vitro photodynamic therapy, MTT cell viability, IL4-stimulated macrophages; assay type: cell-based, human; conditions: with and without irradiation, 30µM
[3] = tested on: (LPS + IFNy)-stimulated macrophages; assay: In vitro photodynamic therapy, MTT cell viability, (LPS + IFNγ)-stimulated macrophages; assay type: cell-based, human; conditions: with and without irradiation, 30µM
[4] = mouse, in vivo
[5] = biological target: T2, Bovine Serum Albumin (BSA, Cat # A7906, Sigma-Aldrich) (bovine, UniProt P02769 25-607); assay: QCM, peptide in PBS on PAH/BSA control multilayer
T2 construct: Control protein deposited on PAH as the control multilayer; also called PAH/BSA control multilayer

[6] = biological target: T3, human recombinant CD206 (Cat # 2534-MR-050/CF from R&D systems) (human, UniProt P22897 19-1383, limits assumed); assay: QCM, PAH/CD206 multilayer, curves fitted with TraceDrawer
T3 construct: Bought recombinant protein; also called Macrophage Mannose Receptor 1; PAH/CD206 multilayer
T3 sequence: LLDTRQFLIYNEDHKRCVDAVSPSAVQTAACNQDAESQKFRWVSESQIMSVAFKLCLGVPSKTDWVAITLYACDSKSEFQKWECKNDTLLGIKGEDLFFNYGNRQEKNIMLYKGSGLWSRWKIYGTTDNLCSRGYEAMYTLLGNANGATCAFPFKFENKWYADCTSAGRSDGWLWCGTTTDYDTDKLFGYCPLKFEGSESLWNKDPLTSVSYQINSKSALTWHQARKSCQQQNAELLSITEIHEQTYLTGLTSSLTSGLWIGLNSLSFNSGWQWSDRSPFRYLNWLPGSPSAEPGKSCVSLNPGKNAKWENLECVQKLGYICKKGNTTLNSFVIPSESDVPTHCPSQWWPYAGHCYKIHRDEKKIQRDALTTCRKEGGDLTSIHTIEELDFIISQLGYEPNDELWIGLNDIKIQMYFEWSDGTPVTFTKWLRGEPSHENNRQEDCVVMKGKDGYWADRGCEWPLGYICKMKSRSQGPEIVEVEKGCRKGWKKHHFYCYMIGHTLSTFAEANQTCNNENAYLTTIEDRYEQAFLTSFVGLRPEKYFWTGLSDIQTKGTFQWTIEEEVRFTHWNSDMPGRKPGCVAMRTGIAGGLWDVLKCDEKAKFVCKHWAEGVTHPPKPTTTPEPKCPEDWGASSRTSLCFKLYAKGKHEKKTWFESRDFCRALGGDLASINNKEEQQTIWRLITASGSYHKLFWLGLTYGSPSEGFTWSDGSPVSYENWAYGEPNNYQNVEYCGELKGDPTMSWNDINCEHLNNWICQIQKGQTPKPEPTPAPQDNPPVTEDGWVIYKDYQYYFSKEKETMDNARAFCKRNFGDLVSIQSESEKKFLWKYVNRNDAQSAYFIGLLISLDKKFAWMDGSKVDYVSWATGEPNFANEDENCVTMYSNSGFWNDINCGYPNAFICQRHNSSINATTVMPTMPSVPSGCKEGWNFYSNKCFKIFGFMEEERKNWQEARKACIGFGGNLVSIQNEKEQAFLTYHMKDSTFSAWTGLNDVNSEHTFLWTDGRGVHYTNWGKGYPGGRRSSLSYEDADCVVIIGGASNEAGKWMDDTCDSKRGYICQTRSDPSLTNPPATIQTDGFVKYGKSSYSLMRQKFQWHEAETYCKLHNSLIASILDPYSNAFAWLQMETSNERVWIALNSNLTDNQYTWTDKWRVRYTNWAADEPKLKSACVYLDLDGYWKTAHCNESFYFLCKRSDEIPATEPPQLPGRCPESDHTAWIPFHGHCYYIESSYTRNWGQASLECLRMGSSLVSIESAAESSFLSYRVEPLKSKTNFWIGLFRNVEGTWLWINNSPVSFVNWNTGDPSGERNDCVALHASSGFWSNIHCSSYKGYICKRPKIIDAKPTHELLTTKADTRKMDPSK

[7] = biological target: T3, human recombinant CD206 (Cat # …); assay: QCM (summary of example 3, Fig. 3)

T2 sequence (P02769 25-607 limits assumed): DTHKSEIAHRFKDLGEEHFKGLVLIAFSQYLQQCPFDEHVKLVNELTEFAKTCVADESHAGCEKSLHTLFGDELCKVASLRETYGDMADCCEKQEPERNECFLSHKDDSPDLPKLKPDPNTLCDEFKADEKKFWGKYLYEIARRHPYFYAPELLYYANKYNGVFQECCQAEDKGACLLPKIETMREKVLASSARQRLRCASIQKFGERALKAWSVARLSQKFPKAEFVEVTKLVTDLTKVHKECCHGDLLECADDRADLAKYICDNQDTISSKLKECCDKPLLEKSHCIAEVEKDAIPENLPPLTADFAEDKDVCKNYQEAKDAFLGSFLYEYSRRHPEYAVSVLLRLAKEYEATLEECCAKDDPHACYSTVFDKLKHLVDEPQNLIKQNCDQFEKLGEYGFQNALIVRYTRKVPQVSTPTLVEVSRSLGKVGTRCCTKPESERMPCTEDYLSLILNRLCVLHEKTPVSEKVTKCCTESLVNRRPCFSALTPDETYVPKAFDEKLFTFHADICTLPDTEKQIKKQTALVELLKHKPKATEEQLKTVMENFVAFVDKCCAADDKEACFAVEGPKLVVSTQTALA

- kon at 10 µM [1]: 650 M⁻¹ s⁻¹
Molecule: CC[C@H](C)[C@@H]1NC(=O)[C@@H]2CCCN2C(=O)[C@@H]2CCCN2C(=O)[C@H]([C@@H](C)CC)NC(=O)[C@H](CO)NC(=O)[C@H](CCCCN)NC(=O)[C@H]([C@@H](C)O)NC(=O)[C@@H](NC(=O)CN)CSSC[C@@H](C(=O)N[C@@H](CO)C(=O)N2CCC[C@H]2C(=O)NCC(=O)N[C@@H](C)C(=O)N[C@@H](CCCCN)C(=O)O)NC1=O [MACTIDE, GCTKSIPPICSPGAK] (H-GCTKSIPPICSPGAK-OH; disulfide 2-10)

- kon at 10 µM [1]: 1400 M⁻¹ s⁻¹
Molecule: CSPGAK [mUNO, CSPGAK]

- binding result [5]: no binding (tested: 10µM)
- Kd [6]: 6 µM
- koff [6]: 0.0087 s⁻¹
- kon [6]: 1400 M⁻¹ s⁻¹
Molecule: CSPGAK (also called mUNO peptide) [mUNO]

Second part, the molecule before the results:

Molecule: Vert-CtrlPep: control conjugate, Vert-Ahx- on AKPCGS (SEQ ID NO: 8) ({Vert-Ahx}-AKPCGS; reading uncertain)
- toxicity [2]: no toxicity
- toxicity [3]: no toxicity

Molecule: CC[C@H](C)[C@@H]1NC(=O)[C@@H]2CCCN2C(=O)[C@@H]2CCCN2C(=O)[C@H]([C@@H](C)CC)NC(=O)[C@H](CO)NC(=O)[C@H](CCCCN)NC(=O)[C@H]([C@@H](C)O)NC(=O)[C@@H](NC(=O)CNC(=O)CCCCCNC(=O)c2ccc3c(c2)C(=O)OC32c3ccc(O)cc3Oc3cc(O)ccc32)CSSC[C@@H](C(=O)N[C@@H](CO)C(=O)N2CCC[C@H]2C(=O)NCC(=O)N[C@@H](C)C(=O)N[C@@H](CCCCN)C(=O)O)NC1=O [FAM-MACTIDE] ({5FAM-Ahx}-GCTKSIPPICSPGAK-OH; disulfide 2-10)
- blood half-life [4]: the same as those obtained previously for FAM-mUNO

B1: MACTIDE (peptide)
peptide: GCTKSIPPICSPGAK
modifications: disulfide 2-10
notes: Monocyclic through the C2-C10 disulfide; also called the peptide of the invention
- fold higher affinity (against mUNO) [7]: 15 fold
- binding result [5]: no binding (tested: 10µM)
- Kd [6]: 0.38 µM
- fold slower dissociation constant against mUNO [6]: 30 fold
- koff [6]: 0.00025 s⁻¹
- kon [6]: 650 M⁻¹ s⁻¹
